Reference: PMC2150586 (The Journal of Cell Biology, 1999)
Values belong to the binder of their own block, whether it stands above or below them.

Columns and labels:
[1] = target: T1, MBPFar1 (Far1p residues 133–831 fused to maltose binding protein) (S. cerevisiae, UniProt P21268 133-830); experiment: […]
T1 sequence: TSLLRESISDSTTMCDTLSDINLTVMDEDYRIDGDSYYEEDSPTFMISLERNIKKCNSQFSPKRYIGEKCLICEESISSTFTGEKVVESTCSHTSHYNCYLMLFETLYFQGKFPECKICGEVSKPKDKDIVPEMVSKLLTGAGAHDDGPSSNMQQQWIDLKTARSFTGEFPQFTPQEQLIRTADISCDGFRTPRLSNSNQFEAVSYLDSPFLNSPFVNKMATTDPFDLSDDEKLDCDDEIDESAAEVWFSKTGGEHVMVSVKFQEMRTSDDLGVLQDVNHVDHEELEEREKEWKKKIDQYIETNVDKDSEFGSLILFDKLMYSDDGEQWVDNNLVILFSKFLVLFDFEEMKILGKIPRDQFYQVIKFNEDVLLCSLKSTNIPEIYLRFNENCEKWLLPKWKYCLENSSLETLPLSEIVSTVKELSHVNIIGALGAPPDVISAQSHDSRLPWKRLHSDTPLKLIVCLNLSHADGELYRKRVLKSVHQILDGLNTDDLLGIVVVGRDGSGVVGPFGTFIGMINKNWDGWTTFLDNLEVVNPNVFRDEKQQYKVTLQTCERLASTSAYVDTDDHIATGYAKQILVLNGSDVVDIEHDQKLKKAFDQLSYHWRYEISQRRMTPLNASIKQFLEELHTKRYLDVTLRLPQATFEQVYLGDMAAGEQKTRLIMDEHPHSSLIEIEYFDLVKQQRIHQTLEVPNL

[2] = target: T2, Cdc24p fused to the GAL4 DNA binding domain (pAS1Cdc24) (S. cerevisiae, UniProt P11433 1-854); experiment: two-hybrid
T2 sequence: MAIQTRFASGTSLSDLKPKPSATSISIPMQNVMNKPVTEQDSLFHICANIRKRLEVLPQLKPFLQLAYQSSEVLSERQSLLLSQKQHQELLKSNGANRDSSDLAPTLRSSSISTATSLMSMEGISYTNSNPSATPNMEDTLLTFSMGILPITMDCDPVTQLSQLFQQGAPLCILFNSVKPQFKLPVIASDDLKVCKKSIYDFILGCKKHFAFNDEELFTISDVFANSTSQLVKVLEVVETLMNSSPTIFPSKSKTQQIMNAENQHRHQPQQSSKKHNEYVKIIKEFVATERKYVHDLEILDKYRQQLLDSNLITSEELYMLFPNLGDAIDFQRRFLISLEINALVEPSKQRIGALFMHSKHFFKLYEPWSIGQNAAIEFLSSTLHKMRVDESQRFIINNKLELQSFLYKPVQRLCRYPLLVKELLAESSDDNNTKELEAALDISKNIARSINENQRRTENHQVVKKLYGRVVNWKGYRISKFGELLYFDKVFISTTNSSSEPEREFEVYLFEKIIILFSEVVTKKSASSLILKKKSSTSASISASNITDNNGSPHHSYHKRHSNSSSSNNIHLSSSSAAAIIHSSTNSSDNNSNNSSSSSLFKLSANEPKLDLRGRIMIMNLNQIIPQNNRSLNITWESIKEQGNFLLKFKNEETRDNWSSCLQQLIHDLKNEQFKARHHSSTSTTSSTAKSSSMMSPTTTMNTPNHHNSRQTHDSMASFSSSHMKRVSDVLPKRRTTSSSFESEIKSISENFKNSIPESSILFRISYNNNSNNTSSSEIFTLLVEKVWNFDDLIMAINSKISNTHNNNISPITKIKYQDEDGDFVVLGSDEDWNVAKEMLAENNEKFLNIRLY

binding result [1]: binds
B1: GSTCdc24 (NH2-terminal 472 amino acids of Cdc24p fused to GST) (domain or fragment)
chain: MAIQTRFASGTSLSDLKPKPSATSISIPMQNVMNKPVTEQDSLFHICANIRKRLEVLPQLKPFLQLAYQSSEVLSERQSLLLSQKQHQELLKSNGANRDSSDLAPTLRSSSISTATSLMSMEGISYTNSNPSATPNMEDTLLTFSMGILPITMDCDPVTQLSQLFQQGAPLCILFNSVKPQFKLPVIASDDLKVCKKSIYDFILGCKKHFAFNDEELFTISDVFANSTSQLVKVLEVVETLMNSSPTIFPSKSKTQQIMNAENQHRHQPQQSSKKHNEYVKIIKEFVATERKYVHDLEILDKYRQQLLDSNLITSEELYMLFPNLGDAIDFQRRFLISLEINALVEPSKQRIGALFMHSKHFFKLYEPWSIGQNAAIEFLSSTLHKMRVDESQRFIINNKLELQSFLYKPVQRLCRYPLLVKELLAESSDDNNTKELEAALDISKNIARSINENQRRTENHQVVKKLYGRVV

fold increase in LacZ activity with Gγ overexpressed [2]: ~2 fold
further fold increase in LacZ activity with Far1p also overexpressed [2]: ~3.5 fold
B2: Ste4p (Gβ) fused to the GAL4 activation domain (pGAD424Ste4) (natural protein)
chain: MAAHQMDSITYSNNVTQQYIQPQSLQDISAVEDEIQNKIEAARQESKQLHAQINKAKHKIQDASLFQMANKVTSLTKNKINLKPNIVLKGHNNKISDFRWSRDSKRILSASQDGFMLIWDSASGLKQNAIPLDSQWVLSCAISPSSTLVASAGLNNNCTIYRVSKENRVAQNVASIFKGHTCYISDIEFTDNAHILTASGDMTCALWDIPKAKRVREYSDHLGDVLALAIPEEPNSENSSNTFASCGSDGYTYIWDSRSPSAVQSFYVNDSDINALRFFKDGMSIVAGSDNGAINMYDLRSDCSIATFSLFRGYEERTPTPTYMAANMEYNTAQSPQTLKSTSSSYLDNQGVVSLDFSASGRLMYSCYTDIGCVVWDVLKGEIVGKLEGHGGRVTGVRSSPDGLAVCTGSWDSTMKIWSPGYQ
